First the molecules themselves.
B1: glmS ribozyme (parent)
chain: AUAAAAGCGCCAGAACUACAGAAAUGUAGUUGACGAGGAGGAGGUUUAUCGAAUUUUCGGCGGAUGCCUCCAAA

Common to all, as to conditions: with glucosamine-6-phosphate
Data set [1] covers variants of B1. The data set can be described thus: self-cleavage kobs at 640 uM GlcN6P; higher = faster cleavage; RNA array. In a few lines: (§1)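 Glucosamine-6-phosphate (40 μM to 10 mM) in HEPES/KCl/Mg(OAc)2 buffer was flowed over sequenced MiSeq chips, and tiles were imaged over ~14 h. Barcoded ribozyme variants there had been transcribed in situ by E. coli RNA polymerase and were tracked through a hybridised Cy3 probe at 37 °C. One- or two-exponential decay fits to per-tile medians, normalised to baseline and to non-cleaving reference variants, gave kobs. kcat and KM came from weighted Michaelis–Menten fits across concentrations.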

Data set [2] covers variants of B1. The data set can be described thus: self-cleavage kobs at 2500 uM GlcN6P; higher = faster cleavage; RNA array. The gist of the method:
as §1

Variants of B1 are the subject of data set [3]. The data set can be described thus: self-cleavage kobs at 10000 uM GlcN6P; higher = faster cleavage; RNA array. The gist of the method:
as §1

± gives the standard error. This sample holds only a part of the variants without activity. A value given as a limit tells only on which side of the number the result lay.

Take A12U C67U C71U: the “self-cleavage kobs at 640 uM GlcN6P” value in data set [1] came to 0.000764 ± 0.0002 s⁻¹. For the same variant, in data set [2], the “self-cleavage kobs at 2500 uM GlcN6P” value was 0.000592 ± 0.00018 s⁻¹.

For A33U G41C G51U U55A, the “self-cleavage kobs at 640 uM GlcN6P” value in data set [1] was less than 1e-05 s⁻¹. Also, in data set [3], the “self-cleavage kobs at 10000 uM GlcN6P” value is less than 1e-05 s⁻¹.

In the case of A12U A48U C68A C70G, in data set [1], the “self-cleavage kobs at 640 uM GlcN6P” value is less than 1e-05 s⁻¹.

As for G38C A42U G63A C68U, the “self-cleavage kobs at 640 uM GlcN6P” value in data set [1] is less than 1e-05 s⁻¹.

For the variant G32U G35U A42U U56A U57A G62U, the “self-cleavage kobs at 640 uM GlcN6P” value in data set [1] was less than 1e-05 s⁻¹. Moreover, the “self-cleavage kobs at 2500 uM GlcN6P” value in data set [2] was less than 1e-05 s⁻¹.

Turning to C8G U55G, the “self-cleavage kobs at 640 uM GlcN6P” value in data set [1] was less than 1e-05 s⁻¹. For the same variant, the “self-cleavage kobs at 2500 uM GlcN6P” value in data set [2] was less than 1e-05 s⁻¹.

As to G7A G51A C58A, the “self-cleavage kobs at 640 uM GlcN6P” value in data set [1] is less than 1e-05 s⁻¹. Further, in data set [2], the “self-cleavage kobs at 2500 uM GlcN6P” value is less than 1e-05 s⁻¹.

On to U47A G66C C71U, for which the “self-cleavage kobs at 640 uM GlcN6P” value in data set [1] came to 0.000187 ± 6.3e-05 s⁻¹. For the same variant, the “self-cleavage kobs at 2500 uM GlcN6P” value in data set [2] is 0.000491 ± 0.00012 s⁻¹.

Turning to C8A G40A A42U G62C, the “self-cleavage kobs at 640 uM GlcN6P” value in data set [1] is less than 1e-05 s⁻¹.

Take G32A A39C G59A C67A: in data set [1], the “self-cleavage kobs at 640 uM GlcN6P” value was less than 1e-05 s⁻¹. For the same variant, the “self-cleavage kobs at 2500 uM GlcN6P” value in data set [2] was less than 1e-05 s⁻¹.

For C8U C70G, the “self-cleavage kobs at 640 uM GlcN6P” value in data set [1] came out at 0.0011 ± 0.00055 s⁻¹.

Turning to A12U U31G G41U, the “self-cleavage kobs at 640 uM GlcN6P” value in data set [1] is 0.00016 ± 5.9e-05 s⁻¹. In addition, the “self-cleavage kobs at 2500 uM GlcN6P” value in data set [2] was 0.000471 ± 0.00018 s⁻¹.

On to C8G A12C C71A, for which the “self-cleavage kobs at 640 uM GlcN6P” value in data set [1] is less than 1e-05 s⁻¹. Also, in data set [2], the “self-cleavage kobs at 2500 uM GlcN6P” value is less than 1e-05 s⁻¹.

A6U C34A G44U C67U: in data set [1], the “self-cleavage kobs at 640 uM GlcN6P” value was less than 1e-05 s⁻¹. The “self-cleavage kobs at 2500 uM GlcN6P” value in data set [2] is less than 1e-05 s⁻¹.

As to C11A C16U A42U, the “self-cleavage kobs at 640 uM GlcN6P” value in data set [1] is less than 1e-05 s⁻¹.

Turning to C34G C61U C70G, the “self-cleavage kobs at 640 uM GlcN6P” value in data set [1] was less than 1e-05 s⁻¹. Moreover, in data set [2], the “self-cleavage kobs at 2500 uM GlcN6P” value is less than 1e-05 s⁻¹.

As to A48C U55G, in data set [1], the “self-cleavage kobs at 640 uM GlcN6P” value stood at 0.000142 ± 3.3e-05 s⁻¹. Also, in data set [2], the “self-cleavage kobs at 2500 uM GlcN6P” value was determined as 0.00018 ± 7e-05 s⁻¹.

In the case of C11G A64U, the “self-cleavage kobs at 640 uM GlcN6P” value in data set [1] was less than 1e-05 s⁻¹. Besides, in data set [2], the “self-cleavage kobs at 2500 uM GlcN6P” value was less than 1e-05 s⁻¹.

On to A14U U30C U49A C50A C70G, for which, in data set [1], the “self-cleavage kobs at 640 uM GlcN6P” value stood at 8.96e-05 ± 2.3e-05 s⁻¹.

On to G9C C11U U56G G66C, for which, in data set [1], the “self-cleavage kobs at 640 uM GlcN6P” value is less than 1e-05 s⁻¹.

For U69G C71A, the “self-cleavage kobs at 640 uM GlcN6P” value in data set [1] was 6.61e-05 ± 2.3e-05 s⁻¹.

For G7A G13C G62U, in data set [1], the “self-cleavage kobs at 640 uM GlcN6P” value is less than 1e-05 s⁻¹.

For G9A G29C G32A G38U, the “self-cleavage kobs at 640 uM GlcN6P” value in data set [1] is less than 1e-05 s⁻¹.

Turning to C11G A12C C34G A53G U54C, the “self-cleavage kobs at 640 uM GlcN6P” value in data set [1] was less than 1e-05 s⁻¹. Besides, in data set [2], the “self-cleavage kobs at 2500 uM GlcN6P” value was less than 1e-05 s⁻¹.

As for G29U G40C A52G C58A C68A, the “self-cleavage kobs at 640 uM GlcN6P” value in data set [1] is less than 1e-05 s⁻¹. In data set [2], the “self-cleavage kobs at 2500 uM GlcN6P” value is less than 1e-05 s⁻¹.

Turning to C58G C61U G63U C68A, the “self-cleavage kobs at 640 uM GlcN6P” value in data set [1] stood at 0.000162 ± 5.6e-05 s⁻¹. Further, in data set [2], the “self-cleavage kobs at 2500 uM GlcN6P” value came to 0.000151 ± 4.4e-05 s⁻¹.

In the case of C10U U49G C58A, the “self-cleavage kobs at 640 uM GlcN6P” value in data set [1] is less than 1e-05 s⁻¹.

On to C16A G40U U57G, for which the “self-cleavage kobs at 640 uM GlcN6P” value in data set [1] is less than 1e-05 s⁻¹. In data set [2], the “self-cleavage kobs at 2500 uM GlcN6P” value is less than 1e-05 s⁻¹.

Turning to G29U A39C G66A, the “self-cleavage kobs at 640 uM GlcN6P” value in data set [1] is 0.000154 ± 3.3e-05 s⁻¹. Further, in data set [2], the “self-cleavage kobs at 2500 uM GlcN6P” value was determined as 0.000178 ± 5.1e-05 s⁻¹.

As to A12G U47A G62U C67G C68G, the “self-cleavage kobs at 640 uM GlcN6P” value in data set [1] amounted to 0.000122 ± 3.6e-05 s⁻¹.

On to C10G A33U G35C G41U U54C C70U, for which, in data set [1], the “self-cleavage kobs at 640 uM GlcN6P” value was less than 1e-05 s⁻¹. In data set [2], the “self-cleavage kobs at 2500 uM GlcN6P” value is less than 1e-05 s⁻¹.

As for A6U C8A C11U C50G, the “self-cleavage kobs at 640 uM GlcN6P” value in data set [1] was 0.000402 ± 0.00018 s⁻¹. In data set [2], the “self-cleavage kobs at 2500 uM GlcN6P” value was found to be 0.000125 ± 4.7e-05 s⁻¹.

As for A14C U45A U56C, the “self-cleavage kobs at 640 uM GlcN6P” value in data set [1] was determined as 8.23e-05 ± 3.9e-05 s⁻¹. Also, the “self-cleavage kobs at 2500 uM GlcN6P” value in data set [2] was 0.000421 ± 0.00012 s⁻¹.
